Results taken from article PMC7717530, “EphA7 isoforms differentially regulate cortical dendrite development” (PLoS ONE, 2020).

Target: EphA7 full-length isoform with hemagglutinin tag (EphA7-FL-HA) (UniProt Q61772-1 28-998)
Test: cell-based or functional assay

Sequence of EphA7 full-length isoform with hemagglutinin tag (EphA7-FL-HA) (Q61772 28-998): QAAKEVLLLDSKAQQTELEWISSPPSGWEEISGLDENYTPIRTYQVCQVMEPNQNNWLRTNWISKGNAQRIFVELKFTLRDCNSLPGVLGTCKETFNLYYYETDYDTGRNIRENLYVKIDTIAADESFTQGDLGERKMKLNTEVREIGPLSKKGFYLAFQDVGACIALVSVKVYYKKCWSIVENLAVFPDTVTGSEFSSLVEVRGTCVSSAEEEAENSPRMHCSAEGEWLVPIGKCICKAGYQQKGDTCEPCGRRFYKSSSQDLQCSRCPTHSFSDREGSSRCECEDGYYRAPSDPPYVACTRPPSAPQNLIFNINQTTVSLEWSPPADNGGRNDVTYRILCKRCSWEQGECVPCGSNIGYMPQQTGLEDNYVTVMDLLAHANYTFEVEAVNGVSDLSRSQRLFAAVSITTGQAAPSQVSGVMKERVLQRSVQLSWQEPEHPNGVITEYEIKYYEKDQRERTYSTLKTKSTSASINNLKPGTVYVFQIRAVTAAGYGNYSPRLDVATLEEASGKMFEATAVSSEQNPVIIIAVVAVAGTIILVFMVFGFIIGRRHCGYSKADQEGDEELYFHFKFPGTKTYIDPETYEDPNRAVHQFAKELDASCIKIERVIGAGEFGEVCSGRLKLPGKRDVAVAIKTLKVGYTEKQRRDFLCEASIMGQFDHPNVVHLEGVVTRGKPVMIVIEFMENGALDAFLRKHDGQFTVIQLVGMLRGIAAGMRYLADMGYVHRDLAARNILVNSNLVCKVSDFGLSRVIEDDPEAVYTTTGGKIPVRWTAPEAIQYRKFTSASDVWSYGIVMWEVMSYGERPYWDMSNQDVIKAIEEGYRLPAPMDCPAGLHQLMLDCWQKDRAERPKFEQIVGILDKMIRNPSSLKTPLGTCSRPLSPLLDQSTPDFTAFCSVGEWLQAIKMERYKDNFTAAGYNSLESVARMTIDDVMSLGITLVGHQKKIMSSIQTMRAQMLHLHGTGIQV

- EphA7-FL tyrosine phosphorylation (phospho-tyrosine over total HA after HA IP) in HEK cells stimulated with clustered ephrin-A5-hFC, at EphA7-T1:FL ratios 1:1 (65%) and 5:1 (42%) compared to 0.2:1: 65 % of EphA7-FL tyrosine phosphorylation compared to a ratio of 0.2:1
B1: EphA7 truncated isoform with myc tag (EphA7-T1-myc) (receptor)
chain: not shown
